# Data as given in PMC3575510, “Antibiotic Inducibility of the mexXY Multidrug Efflux Operon of Pseudomonas aeruginosa: Involvement of the MexZ Anti-Repressor ArmZ” (PLoS ONE, 2013).
# B1: unnamed (parent)
# chain 1: MGNYIKPLSAGVALIASDSTWIEGKAIQQLQTTAELDGMCRVVGLPDLHPGRGYPVGAAFFSVGRFYPALVGNDIGCGMALWETGLALGKLSADKLEKRLGNLDLPLDETWSDCIEALDLPAREHWRALGTIGGGNHFAELQQVETVFDQAALHALGLDADRLQLLVHSGSRGLGQAILQEHVSLHGHAGLLDGSLEASAYLARHADALRFAEGNRQLIARRILERLRCDGLELLDINHNLVVPAQVDGVDGWLHRKGATPADQGVLVIPGSRGDYSYLVEPVPSAQSLFSLAHGAGRKWQRGECRERLAARFSVDQLGRTRLGSRVICGDRQLIYEEAPEAYKGIDSVVGALLEAGLLRLVARLKPVLTYKTRGECCR
# chain 2: MARKTKEESQKTRDGILDAAERVFLEKGVGTTAMADLADAAGVSRGAVYGHYKNKIEVCLAMCDRAFGQIEVPDENARVPALDILLRAGMGFLRQCCEPGSVQRVLEILYLKCERSDENEPLLRRRELLEKQGQRFGLRQIRRAVERGELPARLDVELASIYLQSLWDGICGTLAWTERLRDDPWNRAERMFRAGLDSLRSSPYLLLADA
# Variants of: B1
# Test: bacterial 2-hybrid assay (β-galactosidase activity in E. coli SU202)
# Conditions: with partner chain of the complex shown; IPTG-induced cells; read off a plot
row,Variant,response [Miller Units]
1,chain 1 MGNYIKPLSAGVALIASDSTWIEGKAIQQLQTTAELDGMCRVVGLPDLHPGRGYPVGAAFFSVGRFYPALVGNDIGCGMALWETGLALGKLSADKLEKRLGNLDLPLDETWSDCIEALDLPAREHWRALGTIGGGNHFAELQQVETVFDQAALHALGLDADRLQLLVHSGSRGLGQAILQEHVSLHGHAGLLDGSLEASAYLARHADALRFAEGNRQLIARRILERLRCDDLELLDINHNLVVPAQVDGVDGWLHRKGATPADQGVLVIPGSRGDYSYLVEPVPSAQSLFSLAHGAGRKWQRGECRERLAARFSVDQLGRTRLGSRVICGDRQLIYEEAPEAYKGIDSVVGALLEAGLLRLVARLKPVLTYKTRGECCR [chain 1 G231D],730
2,chain 1 MGNYIKPLSAGVALIASDSTWIEGKAIQQLQTTAELDGMCRVVGLPDLHPGRGYPVGAAFFSVGRFYPALVGNDISCGMALWETGLALGKLSADKLEKRLGNLDLPLDETWSDCIEALDLPAREHWRALGTIGGGNHFAELQQVETVFDQAALHALGLDADRLQLLVHSGSRGLGQAILQEHVSLHGHAGLLDGSLEASAYLARHADALRFAEGNRQLIARRILERLRCDGLELLDINHNLVVPAQVDGVDGWLHRKGATPADQGVLVIPGSRGDYSYLVEPVPSAQSLFSLAHGAGRKWQRGECRERLAARFSVDQLGRTRLGSRVICGDRQLIYEEAPEAYKGIDSVVGALLEAGLLRLVARLKPVLTYKTRGECCR [chain 1 G76S],470
3,chain 1 MGNYIKPLSAGVALIASDSTWIEGKAIQQLQTTAELDGMCRVVGLPDLHPGRGYPVGAAFFSVGRFYSALVGNDIGCGMALWETGLALGKLSADKLEKRLGNLDLPLDETWSDCIEALDLPAREHWRALGTIGGGNHFAELQQVETVFDQAALHALGLDADRLQLLVHSGSRGLGQAILQEHVSLHGHAGLLDGSLEASAYLARHADALRFAEGNRQLIARRILERLRCDGLELLDINHNLVVPAQVDGVDGWLHRKGATPADQGVLVIPGSRGDYSYLVEPVPSAQSLFSLAHGAGRKWQRGECRERLAARFSVDQLGRTRLGSRVICGDRQLIYEEAPEAYKGIDSVVGALLEAGLLRLVARLKPVLTYKTRGECCR [chain 1 P68S],610
4,chain 1 MGNYIKPLSAGVALIASDSTWIEGKAIQQLQTTAELDGMCRVVGLPDLHPGRGYPVGAAFFSVGRFYPALVGNDIGCGMALWETGLALGKLSADKLEKRLGNLDLPLDETWSDCIEALDLPAREHWRALGTIGGGNHFAELQQVETVFDQAALHALGLDADRLQLLVHSGSRGLGQAILQEHVSLHGHAGLLDGSLEASAYLARHADALRFAEGNRQLIARRILERLRCDGLELLDINHNLVVPAQVDGVDSWLHRKGATPADQGVLVIPGSRGDYSYLVEPVPSAQSLFSLAHGAGRKWQRGECRERLAARFSVDQLGRTRLGSRVICGDRQLIYEEAPEAYKGIDSVVGALLEAGLLRLVARLKPVLTYKTRGECCR [chain 1 G252S],700
5,chain 1 MGNYIKPLSAGVALIASDSTWIEGKAIQQLQTTAELDGMCRVVGLPDLHPGRGYPVGAAFFSVGRFYPALVGNDIGCGMALWETGLALGKLSADKLEKRLGNLDLPLDETWSDCIEALDLPAREHWRALGTIGGGNHFAELQQVETVFDQAALHALGLDADRLQLLVHSGSRGLGQAILQEHVSLHGHAGLLDGSLEASAYLARHADALRFAEGNRQLIAQRILERLRCDGLELLDINHNLVVPAQVDGVDGWLHRKGATPADQGVLVIPGSRGDYSYLVEPVPSAQSLFSLAHGAGRKWQRGECRERLAARFSVDQLGRTRLGSRVICGDRQLIYEEAPEAYKGIDSVVGALLEAGLLRLVARLKPVLTYKTRGECCR [chain 1 R221Q],510
6,chain 1 MGNYIKPLSAGVALIASDSTWIEGKAIQQLQTTAELDGMCRVVGLPDLHPGRGYPVGAAFFSVGRFYPALVGNDIGCGMALWETGLALGKLSADKLEKRLGNLDLPLDETWSDCIEALDLPAREHWRALGTIGGGNHFAELQQVETVFDQAALHALGLDADRLQLLVHSGSRGLGQAILQEHVSLHGHAGLLDGSLEASAYLARHADALRFAEGNRQLIAWRILERLRCDGLELLDINHNLVVPAQVDGVDGWLHRKGATPADQGVLVIPGSRGDYSYLVEPVPSAQSLFSLAHGAGRKWQRGECRERLAARFSVDQLGRTRLGSRVICGDRQLIYEEAPEAYKGIDSVVGALLEAGLLRLVARLKPVLTYKTRGECCR [chain 1 R221W],680
7,chain 1 MGNYIKPLSAGVALIASDSTWIEGKAIQQLQTTAELDGMCRVVGLPDLHPGRGYPVGAAFFSVGRFYPALVGNDIGCGMALWETGLALGKLSADKLEKRLGNLDLPLDETWSDCIEALDLPAREHWRALGTIGGGNHFAELQQVETVFDQAALHALGLDADRLQLLVHSGSRGLGQAILQEHVSLHGHAGLLDGSLEASAYLARHADALRFAEGNCQLIARRILERLRCDGLELLDINHNLVVPAQVDGVDGWLHRKGATPADQGVLVIPGSRGDYSYLVEPVPSAQSLFSLAHGAGRKWQRGECRERLAARFSVDQLGRTRLGSRVICGDRQLIYEEAPEAYKGIDSVVGALLEAGLLRLVARLKPVLTYKTRGECCR [chain 1 R216C],720
